Results taken from patent US20200157236A1 (CELLDEX THERAPEUTICS, published 2020).

The binders below were run against T1, purified ALK protein (BLitz, Table 20) (Homo sapiens (Human), UniProt Q9UM73 19-1038, limits assumed) (assay: BLI (BLitz), mAb on Protein A tip, purified ALK in solution).
T1 construct: also called purified ALK proteins
Experimental: Kinetic measurements of the monovalent affinity of the 96 humanized ALK antibody variants (Ab351-Ab446) were collected. Affinity ranking was performed using a BLitz® System (ForteBio, Menlo Park, Calif.). Humanized anti-ALK antibodies were immobilized at 0.5 mg/mL using Protein A tips. Once baseline stability was ensured, purified ALK proteins at 70 μg/mL were added. The resulting kinetic data were fit to a single binding site equation, from which the quoted monovalent KD values were derived.

T1 sequence (Q9UM73 19-1038 limits assumed): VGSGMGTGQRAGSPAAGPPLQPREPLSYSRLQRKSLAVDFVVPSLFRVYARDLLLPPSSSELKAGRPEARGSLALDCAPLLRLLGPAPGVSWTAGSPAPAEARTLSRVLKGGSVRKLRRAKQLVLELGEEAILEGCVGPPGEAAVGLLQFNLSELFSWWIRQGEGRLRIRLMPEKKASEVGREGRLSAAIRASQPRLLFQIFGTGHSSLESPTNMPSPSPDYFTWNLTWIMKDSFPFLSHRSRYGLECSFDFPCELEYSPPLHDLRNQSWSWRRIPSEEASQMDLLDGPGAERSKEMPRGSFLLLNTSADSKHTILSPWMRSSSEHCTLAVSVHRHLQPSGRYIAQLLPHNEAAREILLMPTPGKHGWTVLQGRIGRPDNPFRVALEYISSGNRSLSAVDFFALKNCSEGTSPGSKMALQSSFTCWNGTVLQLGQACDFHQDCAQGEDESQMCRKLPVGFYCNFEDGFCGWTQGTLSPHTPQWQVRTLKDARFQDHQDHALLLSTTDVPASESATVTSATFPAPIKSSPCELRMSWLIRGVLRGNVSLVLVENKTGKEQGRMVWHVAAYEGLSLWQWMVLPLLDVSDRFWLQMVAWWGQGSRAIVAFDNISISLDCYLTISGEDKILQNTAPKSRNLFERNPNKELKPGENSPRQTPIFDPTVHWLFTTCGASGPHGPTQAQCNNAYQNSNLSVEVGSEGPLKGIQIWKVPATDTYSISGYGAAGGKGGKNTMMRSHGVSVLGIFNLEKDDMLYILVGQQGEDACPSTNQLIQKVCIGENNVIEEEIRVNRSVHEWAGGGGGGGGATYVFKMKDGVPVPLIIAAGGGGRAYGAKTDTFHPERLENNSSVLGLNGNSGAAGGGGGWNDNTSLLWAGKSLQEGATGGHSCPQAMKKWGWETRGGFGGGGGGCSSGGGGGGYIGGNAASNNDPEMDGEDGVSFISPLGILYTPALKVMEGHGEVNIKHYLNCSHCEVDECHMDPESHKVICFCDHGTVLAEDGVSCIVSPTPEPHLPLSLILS

Row | Binder | Kd
1 | Ab394 (antibody, V domains shown, humanized) VH: EVQLVQSGAEVKKPGASVKLSCKASGYTFTSYWMHWVRQAPGQGLEWIGYIKPSSGYTKYAQKLQGRVTLTADKSTSTAYMELRSLRSDDTAVYYCARDYYGSSSWFAYWGQGTLVTVSS VL: EIVMTQSPATLSTSPGERATLSCKASQNVGTNVAWYQQKPGQAPRALIYSASYRYSGVPARFSGSGSGTDFTLTISSVEPEDFAVYYCQQYNSYPYMYTFGQGTKLEIK | 157 nM
2 | Ab395 (antibody, V domains shown, humanized) VH: QVQLVQSGAEVAKPGSSVKLSCKASGYTFTSYWMHWVKQAPGQGLEWIGYIKPSSGYTKYNQKFKDKATLTADKSTSTAYMELSSLRSEDTAVYYCARDYYGSSSWFAYWGQGTLVTVSS VL: EIVMTQSPATLSTSPGERATLSCKASQNVGTNVAWYQQKPGQAPRALIYSASYRYSGVPARFSGSGSGTDFTLTISSVEPEDFAVYYCQQYNSYPYMYTFGQGTKLEIK | 132 nM
3 | Ab396 (antibody, V domains shown, humanized) VH: EVQLVQSGAEVKKPGSSVKLSCKASGYTFTSYWMHWVRQAPGQGLEWIGYIKPSSGYTKYNQKFKDKATLTADKSTSTAYMELSSLRSEDTAVYYCARDYYGSSSWFAYWGQGTLVTVSS VL: EIVMTQSPATLSTSPGERATLSCKASQNVGTNVAWYQQKPGQAPRALIYSASYRYSGVPARFSGSGSGTDFTLTISSVEPEDFAVYYCQQYNSYPYMYTFGQGTKLEIK | 176 nM
4 | Ab397 (antibody, V domains shown, humanized) VH: EVQLVQSGAEVKKPGSSVKVSCKASGYTFSSYWMHWVRQAPGQGLEWIGYIKPSSGYTKYNQKFKDKATLTADKSTSTAYMELSSLRSEDTAVYYCARDYYGSSSWFAYWGQGTLVTVSS VL: EIVMTQSPATLSTSPGERATLSCKASQNVGTNVAWYQQKPGQAPRALIYSASYRYSGVPARFSGSGSGTDFTLTISSVEPEDFAVYYCQQYNSYPYMYTFGQGTKLEIK | 378 nM
5 | Ab398 (antibody, V domains shown, humanized) VH: EVQLVQSGAEVKKPGSSVKLSCKASGYTFSSYWMHWVKQAPGQGLEWIGYIKPSSGYTKYAQKFQGRVTLTADKSTSTAYMELSSLRSEDTAVYYCARDYYGSSSWFAYWGQGTLVTVSS VL: EIVMTQSPATLSTSPGERATLSCKASQNVGTNVAWYQQKPGQAPRALIYSASYRYSGVPARFSGSGSGTDFTLTISSVEPEDFAVYYCQQYNSYPYMYTFGQGTKLEIK | 221 nM
6 | Ab399 (antibody, V domains shown, humanized) VH: QVQLVQSGAEVAKPGTSVKLSCKASGYTFTSYWMHWVKQAPGQGLEWIGYIKPSSGYTKYNQKFKDKVTLTADKSTSTAYMELSSLRSEDTAVYYCARDYYGSSSWFAYWGQGTLVTVSS VL: EIVMTQSQATMSTSVGERATLSCKASQNVGTNVAWYQQKPGQSPKALIYSASYRYSGVPARFSGSGSGTDFTLTISSVEPEDFAVYYCQQYNSYPYMYTFGQGTKLEIK | 107 nM
7 | Ab401 (antibody, V domains shown, humanized) VH: EVQLVQSGAEVKKPGTSVKLSCKASGYTFTSSAMQWVKQAPGQGLEWIGYIKPSSGYTKYNQKFKDKATLTADKSTSTAYMELSSLRSEDTAVYYCARDYYGSSSWFAYWGQGTLVTVSS VL: EIVMTQSQATMSTSVGERATLSCKASQNVGTNVAWYQQKPGQSPKALIYSASYRYSGVPARFSGSGSGTDFTLTISSVEPEDFAVYYCQQYNSYPYMYTFGQGTKLEIK | 1060 nM
8 | Ab404 (antibody, V domains shown, humanized) VH: EVQLVQSGAEVKKPGASVKLSCKASGYTFTSYWMHWVRQAPGQGLEWIGYIKPSSGYTKYNQKFKDKATLTADKSTSTAYMELRSLRSDDTAVYYCARDYYGSSSWFAYWGQGTLVTVSS VL: EIVMTQSQATMSTSVGERATLSCKASQNVGTNVAWYQQKPGQSPKALIYSASYRYSGVPARFSGSGSGTDFTLTISSVEPEDFAVYYCQQYNSYPYMYTFGQGTKLEIK | 132 nM
9 | Ab405 (antibody, V domains shown, humanized) VH: EVQLVQSGAEVAKPGASVKLSCKASGYTFTSYWMHWVRQAPGQGLEWIGYIKPSSGYTKYNQKFKDKATLTADKSTSTAYMELRSLRSDDTAVYYCARDYYGSSSWFAYWGQGTLVTVSS VL: EIVMTQSQATMSTSVGERATLSCKASQNVGTNVAWYQQKPGQSPKALIYSASYRYSGVPARFSGSGSGTDFTLTISSVEPEDFAVYYCQQYNSYPYMYTFGQGTKLEIK | 195 nM
10 | Ab407 (antibody, V domains shown, humanized) VH: QVQLVQSGAEVAKPGSSVKLSCKASGYTFTSYWMHWVKQAPGQGLEWIGYIKPSSGYTKYNQKFKDKATLTADKSTSTAYMELSSLRSEDTAVYYCARDYYGSSSWFAYWGQGTLVTVSS VL: EIVMTQSQATMSTSVGERATLSCKASQNVGTNVAWYQQKPGQSPKALIYSASYRYSGVPARFSGSGSGTDFTLTISSVEPEDFAVYYCQQYNSYPYMYTFGQGTKLEIK | 109 nM
11 | Ab408 (antibody, V domains shown, humanized) VH: EVQLVQSGAEVKKPGSSVKLSCKASGYTFTSYWMHWVRQAPGQGLEWIGYIKPSSGYTKYNQKFKDKATLTADKSTSTAYMELSSLRSEDTAVYYCARDYYGSSSWFAYWGQGTLVTVSS VL: EIVMTQSQATMSTSVGERATLSCKASQNVGTNVAWYQQKPGQSPKALIYSASYRYSGVPARFSGSGSGTDFTLTISSVEPEDFAVYYCQQYNSYPYMYTFGQGTKLEIK | 144 nM
12 | Ab409 (antibody, V domains shown, humanized) VH: EVQLVQSGAEVKKPGSSVKVSCKASGYTFSSYWMHWVRQAPGQGLEWIGYIKPSSGYTKYNQKFKDKATLTADKSTSTAYMELSSLRSEDTAVYYCARDYYGSSSWFAYWGQGTLVTVSS VL: EIVMTQSQATMSTSVGERATLSCKASQNVGTNVAWYQQKPGQSPKALIYSASYRYSGVPARFSGSGSGTDFTLTISSVEPEDFAVYYCQQYNSYPYMYTFGQGTKLEIK | 208 nM
13 | Ab410 (antibody, V domains shown, humanized) VH: EVQLVQSGAEVKKPGSSVKLSCKASGYTFSSYWMHWVKQAPGQGLEWIGYIKPSSGYTKYAQKFQGRVTLTADKSTSTAYMELSSLRSEDTAVYYCARDYYGSSSWFAYWGQGTLVTVSS VL: EIVMTQSQATMSTSVGERATLSCKASQNVGTNVAWYQQKPGQSPKALIYSASYRYSGVPARFSGSGSGTDFTLTISSVEPEDFAVYYCQQYNSYPYMYTFGQGTKLEIK | 144 nM
14 | Ab411 (antibody, V domains shown, humanized) VH: QVQLVQSGAEVAKPGTSVKLSCKASGYTFTSYWMHWVKQAPGQGLEWIGYIKPSSGYTKYNQKFKDKVTLTADKSTSTAYMELSSLRSEDTAVYYCARDYYGSSSWFAYWGQGTLVTVSS VL: EIVMTQSQATLSTSPGERATLSCKASQNVGTNVAWYQQKPGQAPRALIYSASYRYSGVPARFSGSGSGTDFTLTISSVEPEDFAVYYCQQYNSYPYMYTFGQGTKLEIK | 143 nM
15 | Ab412 (antibody, V domains shown, humanized) VH: EVQLVQSGPEVKKPGTSVKLSCKASGYTFTSYWMHWVRQARGQRLEWIGYIKPSSGYTKYNQKFKDRATLTADKSTSTAYMELSSLRSEDTAVYYCARDYYGSSSWFAYWGQGTLVTVSS VL: EIVMTQSQATLSTSPGERATLSCKASQNVGTNVAWYQQKPGQAPRALIYSASYRYSGVPARFSGSGSGTDFTLTISSVEPEDFAVYYCQQYNSYPYMYTFGQGTKLEIK | 111 nM
16 | Ab413 (antibody, V domains shown, humanized) VH: EVQLVQSGAEVKKPGTSVKLSCKASGYTFTSSAMQWVKQAPGQGLEWIGYIKPSSGYTKYNQKFKDKATLTADKSTSTAYMELSSLRSEDTAVYYCARDYYGSSSWFAYWGQGTLVTVSS VL: EIVMTQSQATLSTSPGERATLSCKASQNVGTNVAWYQQKPGQAPRALIYSASYRYSGVPARFSGSGSGTDFTLTISSVEPEDFAVYYCQQYNSYPYMYTFGQGTKLEIK | 1660 nM
17 | Ab414 (antibody, V domains shown, humanized) VH: EVQLVQSGAEVKKPGTSVKLSCKASGYTFTSYWMHWVRQARGQRLEWIGYIKPSSGYTKYAQKFQERVTLTADKSTSTAYMELSSLRSEDTAVYYCARDYYGSSSWFAYWGQGTLVTVSS VL: EIVMTQSQATLSTSPGERATLSCKASQNVGTNVAWYQQKPGQAPRALIYSASYRYSGVPARFSGSGSGTDFTLTISSVEPEDFAVYYCQQYNSYPYMYTFGQGTKLEIK | 142 nM
18 | Ab415 (antibody, V domains shown, humanized) VH: QVQLVQSGAEVAKPGASVKLSCKASGYTFTSYWMHWVKQAPGQGLEWIGYIKPSSGYTKYNQKFKDKATLTADKSTSTAYMELRSLRSDDTAVYYCARDYYGSSSWFAYWGQGTLVTVSS VL: EIVMTQSQATLSTSPGERATLSCKASQNVGTNVAWYQQKPGQAPRALIYSASYRYSGVPARFSGSGSGTDFTLTISSVEPEDFAVYYCQQYNSYPYMYTFGQGTKLEIK | 128 nM
19 | Ab416 (antibody, V domains shown, humanized) VH: EVQLVQSGAEVKKPGASVKLSCKASGYTFTSYWMHWVRQAPGQGLEWIGYIKPSSGYTKYNQKFKDKATLTADKSTSTAYMELRSLRSDDTAVYYCARDYYGSSSWFAYWGQGTLVTVSS VL: EIVMTQSQATLSTSPGERATLSCKASQNVGTNVAWYQQKPGQAPRALIYSASYRYSGVPARFSGSGSGTDFTLTISSVEPEDFAVYYCQQYNSYPYMYTFGQGTKLEIK | 180 nM
20 | Ab417 (antibody, V domains shown, humanized) VH: EVQLVQSGAEVAKPGASVKLSCKASGYTFTSYWMHWVRQAPGQGLEWIGYIKPSSGYTKYNQKFKDKATLTADKSTSTAYMELRSLRSDDTAVYYCARDYYGSSSWFAYWGQGTLVTVSS VL: EIVMTQSQATLSTSPGERATLSCKASQNVGTNVAWYQQKPGQAPRALIYSASYRYSGVPARFSGSGSGTDFTLTISSVEPEDFAVYYCQQYNSYPYMYTFGQGTKLEIK | 170 nM
21 | Ab418 (antibody, V domains shown, humanized) VH: EVQLVQSGAEVKKPGASVKLSCKASGYTFTSYWMHWVRQAPGQGLEWIGYIKPSSGYTKYAQKLQGRVTLTADKSTSTAYMELRSLRSDDTAVYYCARDYYGSSSWFAYWGQGTLVTVSS VL: EIVMTQSQATLSTSPGERATLSCKASQNVGTNVAWYQQKPGQAPRALIYSASYRYSGVPARFSGSGSGTDFTLTISSVEPEDFAVYYCQQYNSYPYMYTFGQGTKLEIK | 131 nM
